Assay results reported in patent publication US20220119490A1 (Genentech, published 2022).

T1: PD-L2 extracellular domain (human, UniProt Q9BQ51 20-220)
T1 construct: extracellular domain; ECD construct; also called PDCD1LG2; programmed cell death 1 ligand 2
T1 sequence (looked up): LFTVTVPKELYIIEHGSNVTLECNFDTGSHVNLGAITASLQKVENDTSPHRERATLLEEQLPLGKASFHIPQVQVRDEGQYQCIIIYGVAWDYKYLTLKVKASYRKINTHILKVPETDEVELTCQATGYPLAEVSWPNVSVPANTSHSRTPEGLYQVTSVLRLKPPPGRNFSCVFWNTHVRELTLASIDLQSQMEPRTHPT

T2: AXL extracellular domain (human, UniProt P30530 26-451)
T2 construct: extracellular domain; Biotinylated ectodomain on streptavidin sensors in BLI; streptavidin tetramer in the cell assay; also called UFO; tyrosine-protein kinase receptor AXL
T2 sequence (looked up): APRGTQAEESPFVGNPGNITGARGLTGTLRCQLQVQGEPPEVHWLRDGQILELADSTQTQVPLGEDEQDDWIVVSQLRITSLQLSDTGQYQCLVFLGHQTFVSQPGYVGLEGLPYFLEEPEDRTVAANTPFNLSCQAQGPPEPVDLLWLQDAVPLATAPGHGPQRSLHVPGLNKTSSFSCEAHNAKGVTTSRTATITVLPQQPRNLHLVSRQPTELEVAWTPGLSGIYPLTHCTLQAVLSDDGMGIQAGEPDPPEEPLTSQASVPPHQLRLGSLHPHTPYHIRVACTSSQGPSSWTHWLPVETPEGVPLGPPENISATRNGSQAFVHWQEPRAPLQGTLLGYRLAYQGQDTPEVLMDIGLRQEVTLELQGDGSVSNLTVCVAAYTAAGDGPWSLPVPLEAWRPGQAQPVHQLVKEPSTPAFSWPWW

B1: TNFRS11A_DNA742118 (receptor, human, UniProt Q9Y6Q6 30-212, looked up)
extracellular domain construct of the screen: IAPPCTSEKHYEHLGRCCNKCEPGKYMSSKCTTTSDSVCLPCGPDEYLDSWNEEDKCLLHKVCDTGKALVAVVAGNSTTPRRCACTAGYHWSQDCECCRRNTECAPGLGAQHPLQLNKDTVCKPCLAGYFSDAFSSTDKCRPWTNCTFLGKRVEHHGTEKSDAVCSSSLPARKPPNEPHVYLP
notes: extracellular domain; also called TNFRSF11A
B2: CHL1 extracellular domain (receptor, human, UniProt O00533 25-1082, looked up)
chain: IEIPSSVQQVPTIIKQSKVQVAFPFDEYFQIECEAKGNPEPTFSWTKDGNPFYFTDHRIIPSNNSGTFRIPNEGHISHFQGKYRCFASNKLGIAMSEEIEFIVPSVPKFPKEKIDPLEVEEGDPIVLPCNPPKGLPPLHIYWMNIELEHIEQDERVYMSQKGDLYFANVEEKDSRNDYCCFAAFPRLRTIVQKMPMKLTVNSSNSIKQRKPKLLLPPTESGSESSITILKGEILLLECFAEGLPTPQVDWNKIGGDLPKGRETKENYGKTLKIENVSYQDKGNYRCTASNFLGTATHDFHVIVEEPPRWTKKPQSAVYSTGSNGILLCEAEGEPQPTIKWRVNGSPVDNHPFAGDVVFPREISFTNLQPNHTAVYQCEASNVHGTILANANIDVVDVRPLIQTKDGENYATVVGYSAFLHCEFFASPEAVVSWQKVEEVKPLEGRRYHIYENGTLQINRTTEEDAGSYSCWVENAIGKTAVTANLDIRNATKLRVSPKNPRIPKLHMLELHCESKCDSHLKHSLKLSWSKDGEAFEINGTEDGRIIIDGANLTISNVTLEDQGIYCCSAHTALDSAADITQVTVLDVPDPPENLHLSERQNRSVRLTWEAGADHNSNISEYIVEFEGNKEEPGRWEELTRVQGKKTTVILPLAPFVRYQFRVIAVNEVGRSQPSQPSDHHETPPAAPDRNPQNIRVQASQPKEMIIKWEPLKSMEQNGPGLEYRVTWKPQGAPVEWEEETVTNHTLRVMTPAVYAPYDVKVQAINQLGSGPDPQSVTLYSGEDYPDTAPVIHGVDVINSTLVKVTWSTVPKDRVHGRLKGYQINWWKTKSLLDGRTHPKEVNILRFSGQRNSGMVPSLDAFSEFHLTVLAYNSKGAGPESEPYIFQTPEGVPEQPTFLKVIKVDKDTATLSWGLPKKLNGNLTGYLLQYQIINDTYEIGELNDINITTPSKPSWHLSNLNATTKYKFYLRACTSQGCGKPITEESSTLGEGSKGIGKISGVNLTQKTHPIEVFEPGAEHIVRLMTKNWGDNDSIFQDVIETRGREYAGLYDDISTQGW
notes: extracellular domain; Soluble query (streptavidin tetramer) in cell assays; recombinant protein (R&D) in SPR; also called neural cell adhesion molecule L1-like protein; close homolog of L1
B3: IL1RL1 extracellular domain (receptor, human, UniProt Q01638 19-328, looked up)
chain: KFSKQSWGLENEALIVRCPRQGKPSYTVDWYYSQTNKSIPTQERNRVFASGQLLKFLPAAVADSGIYTCIVRSPTFNRTGYANVTIYKKQSDCNVPDYLMYSTVSGSEKNSKIYCPTIDLYNWTAPLEWFKNCQALQGSRYRAHKSFLVIDNVMTEDAGDYTCKFIHNENGANYSVTATRSFTVKDEQGFSLFPVIGAPAQNEIKEVEIGKNANLTCSACFGKGTQFLAAVLWQLNGTKITDFGEPRIQQEEGQNQSFSNGLACLDMVLRIADVKEEDLLLQYDCLALNLHGLRRHTVRLSRKNPIDHHS
notes: extracellular domain; Soluble analyte in BLI
B4: CNTN5 expressed on cells (receptor, human, UniProt O94779 19-1072, looked up)
chain: EYSKSLPGLSTSYAALLRIKKSSSSSLFGSKTRPRYSSPSLGTLSASSPSWLGAAQNYYSPINLYHSSDAFKQDESVDYGPVFVQEPDDIIFPTDSDEKKVALNCEVRGNPVPSYRWLRNGTEIDLESDYRYSLIDGTFIISNPSEAKDSGHYQCLATNTVGSILSREATLQFAYLGNFSGRTRSAVSVREGQGVVLMCSPPPHSPEIIYSWVFNEFPSFVAEDSRRFISQETGNLYISKVQTSDVGSYICLVKNTVTNARVLSPPTPLTLRNDGVMGEYEPKIEVHFPFTVTAAKGTTVKMECFALGNPVPTITWMKVNGYIPSKARLRKSQAVLEIPNVQLDDAGIYECRAENSRGKNSFRGQLQVYTYPHWVEKLNDTQLDSGSPLRWECKATGKPRPTYRWLKNGVPLSPQSRVEMVNGVLMIHNVNQSDAGMYQCLAENKYGAIYASAELKILASAPTFALNQLKKTIIVTKDQEVVIECKPQGSPKPTISWKKGDRAVRENKRIAILPDGSLRILNASKSDEGKYVCRGENVFGSAEIIASLSVKEPTRIELTPKRTELTVGESIVLNCKAIHDASLDVTFYWTLKGQPIDFEEEGGHFESIRAQASSADLMIRNILLMHAGRYGCRVQTTADSVSDEAELLVRGPPGPPGIVIVEEITESTATLSWSPAADNHSPISSYNLQARSPFSLGWQTVKTVPEIITGDMESAMAVDLNPWVEYEFRVVATNPIGTGDPSTPSRMIRTNEAVPKTAPTNVSGRSGRRHELVIAWEPVSEEFQNGEGFGYIVAFRPNGTRGWKEKMVTSSEASKFIYRDESVPPLTPFEVKVGVYNNKGDGPFSQIVVICSAEGEPSAAPTDVKATSVSVSEILVAWKHIKESLGRPQGFEVGYWKDMEQEDTAETVKTRGNESFVILTGLEGNTLYHFTVRAYNGAGYGPPSSEVSATTKKSPPSQAPSNLRWEQQGSQVSLGWEPVIPLANESEVVGYKVFYRQEGHSNSQVIETQKLQAVVPLPDAGVYIIEVRAYSEGGDGTASSQIRVPSYSGGKITS
notes: whole, on cells; also called contactin 5

Assays:
[1] = molecular target: T1, PD-L2 extracellular domain; assay: extracellular interaction screen, normalized intensity; labelled dot against the clone named on the axis; which is query and which prey is not given; colour of the predicted class lost
L1CAM expressed on cells = molecular target: T3, L1CAM expressed on cells (human, UniProt P32004 20-1257); assay: cell surface interaction assay: streptavidin-tetramerized biotinylated ECD on transfected cells, immunofluorescence
T3 construct: whole, on cells; also called L1 cell adhesion molecule
T3 sequence (P32004 20-1257): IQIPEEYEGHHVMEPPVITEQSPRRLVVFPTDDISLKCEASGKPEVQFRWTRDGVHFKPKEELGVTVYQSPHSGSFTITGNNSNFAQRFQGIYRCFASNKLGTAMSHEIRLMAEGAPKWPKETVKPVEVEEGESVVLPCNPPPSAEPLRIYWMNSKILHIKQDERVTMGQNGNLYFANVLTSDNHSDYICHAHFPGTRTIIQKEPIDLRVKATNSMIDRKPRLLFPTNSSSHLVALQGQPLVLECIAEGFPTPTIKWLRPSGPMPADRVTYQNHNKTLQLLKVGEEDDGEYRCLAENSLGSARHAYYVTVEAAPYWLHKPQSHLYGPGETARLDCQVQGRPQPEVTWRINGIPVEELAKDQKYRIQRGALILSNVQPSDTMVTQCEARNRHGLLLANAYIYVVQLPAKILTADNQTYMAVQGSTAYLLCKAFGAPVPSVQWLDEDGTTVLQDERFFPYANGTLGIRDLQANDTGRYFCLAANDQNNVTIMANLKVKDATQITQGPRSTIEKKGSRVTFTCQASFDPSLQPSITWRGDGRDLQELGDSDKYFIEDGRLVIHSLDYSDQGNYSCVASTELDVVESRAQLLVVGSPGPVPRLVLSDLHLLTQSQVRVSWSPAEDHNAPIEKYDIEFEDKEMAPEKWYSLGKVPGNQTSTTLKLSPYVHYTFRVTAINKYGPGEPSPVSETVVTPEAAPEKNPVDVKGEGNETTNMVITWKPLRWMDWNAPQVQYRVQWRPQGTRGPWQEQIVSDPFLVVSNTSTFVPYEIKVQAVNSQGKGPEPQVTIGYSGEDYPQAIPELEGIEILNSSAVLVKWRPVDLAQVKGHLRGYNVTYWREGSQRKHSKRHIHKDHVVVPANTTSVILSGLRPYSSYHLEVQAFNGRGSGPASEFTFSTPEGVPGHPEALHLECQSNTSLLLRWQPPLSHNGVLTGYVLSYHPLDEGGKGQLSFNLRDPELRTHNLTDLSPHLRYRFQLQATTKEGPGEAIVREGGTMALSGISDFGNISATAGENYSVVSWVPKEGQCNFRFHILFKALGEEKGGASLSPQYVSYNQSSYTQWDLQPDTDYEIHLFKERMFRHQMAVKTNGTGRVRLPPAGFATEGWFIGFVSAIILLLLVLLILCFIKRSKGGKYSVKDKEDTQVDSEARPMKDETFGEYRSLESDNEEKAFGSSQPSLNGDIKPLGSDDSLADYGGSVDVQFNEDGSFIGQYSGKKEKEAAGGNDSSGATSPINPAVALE
Excerpt: FIG. 3H is a schematic showing the design of the cell surface interaction assay.

AXL extracellular domain = molecular target: T2, AXL extracellular domain; assay: biolayer interferometry, biotinylated AXL ectodomain on streptavidin sensors, IL1RL1 ectodomain in solution
Procedure: Interactions between AXL and the binding partners IL1RL1 and Gas6 were assayed by biolayer interferometry using an Octet Red system, as previously described (Husain et al., Mol Cell Proteomics, 18: 2310-2323, 2019). […] Data were analyzed using Forte Pall (Port Washington, N.Y.) software 9.0.

[2] = molecular target: B2; assay: cell surface interaction assay: streptavidin-tetramerized biotinylated ECD on transfected cells, immunofluorescence

Does B1 bind [1]?
Result: binds

Does B2 bind (L1CAM expressed on cells)?
Result: binds

Does B3 bind (AXL extracellular domain)?
Result: binds

Does B4 bind [2]?
Result: binds
